The target in the assay is EB1-mScarlet (UniProt Q9XZ57). The assay is described as follows: co-immunoprecipitation (mNeongreen-trap) with immunoblot quantification. The settings on record: S2 cells overexpressing the constructs; n = 3 independent replicates; parent: est. 100; read off a plot.
Chain of UniProt Q9XZ57 (Q9XZ57 entry or part of it): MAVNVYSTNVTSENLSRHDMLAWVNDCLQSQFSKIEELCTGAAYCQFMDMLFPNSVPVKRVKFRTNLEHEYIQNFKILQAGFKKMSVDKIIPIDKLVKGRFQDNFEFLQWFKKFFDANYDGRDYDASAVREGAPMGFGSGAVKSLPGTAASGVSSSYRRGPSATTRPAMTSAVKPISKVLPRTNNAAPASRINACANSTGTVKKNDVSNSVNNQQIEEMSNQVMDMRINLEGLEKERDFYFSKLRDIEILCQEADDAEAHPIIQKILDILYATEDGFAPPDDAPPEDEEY
Regarding “mNeongreen RhoGEF2 (1–619), wild type 7A (seven serines proximal to the SKIP motif changed to A; residue numbers not printed)”, the percent of parent (% relative to WT) is 76.
The result for “mNeongreen RhoGEF2 (1–619), wild type 7E (seven serines proximal to the SKIP motif changed to E; residue numbers not printed)” reads 56.
The figure for “mNeongreen RhoGEF2 (1–619), wild type SKIP→SKNN (I→N; P→N in the SxIP motif; residue numbers not printed)” is 78.

Values taken from publication PMC9473612.
